The values that follow come from patent publication US20160046707A1 (EISAI R AND D MANAGEMENT, published 2016).

One assay addresses T1, recombinant human CCL16 (human, UniProt O15467 24-120).
T1 construct: also called HCC-4
T1 sequence (looked up): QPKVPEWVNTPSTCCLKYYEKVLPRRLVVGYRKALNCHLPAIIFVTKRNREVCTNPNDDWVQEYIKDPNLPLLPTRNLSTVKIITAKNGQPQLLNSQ
Kind of assay: SPR (Biacore): antibody captured on anti-human Fc, 100 nM chemokine injected; ratio = chemokine binding level over antibody capture level. Here is the method: We used Biacore™ analysis to test whether HC2/LK3 and HC2/LC3 cross-react with CCL16. Monoclonal mouse anti-human Fc was immobilized on all four flow cells of a CM5 chip at a flow rate of 25 μl/min with HBS-EP buffer containing 0.2 mg/mL BSA. Subsequently, 50 μl of a 1 μg/ml solution of chimeric, HC2/LC3, or HC2/LK3 antibody in HBS-EP buffer with 0.2 mg/ml BSA was injected over flow cells 2, 3, and 4, respectively. 150 μl of a 100 nM solution of CCL20 or CCL16 in HBS-EP buffer (or buffer alone) with 0.2 mg/ml BSA was then injected over all four flow cells at a flow rate of 40 μl/min. Dissociation followed for 20 min. Flow cell 1 (anti-human Fc antibody alone) was used as a reference for all flow cells.
Under these conditions, human CCL20 bound to the chimeric (FIG. 13A), HC2/LC3 (FIG. 13B), and HC2/LK3 (FIG. 13B) antibodies captured on the chip with similar strength.
For orientation: SPR reads the build-up and loss of mass on a sensor chip optically.

The target of assay [1] is T2, human CCL20-secreted alkaline phosphatase (SEAP) fusion (human, UniProt P78556 27-96).
T2 construct: also called hCCL20; human CCL20-SEAP; not shown: secreted alkaline phosphatase (SEAP), cDNA from pSEAP-Enhancer vector (Clontech)
Kind of assay: SPR (Biacore), CCL20-SEAP captured by anti-SEAP, antibody injected (bivalent format), 1:1 Langmuir. Here is the method: (§1) We also used surface plasmon resonance (Biacore™) analysis to test whether HC2/LC3 and HC2/LK3 can bind to mouse, cynomolgus, or rhesus macaque CCL20 orthologs. Monoclonal mouse anti-human placental alkaline phosphatase was immobilized on all four flow cells of a CM5 chip at a flow rate of 25 μl/min. 25 μl of a 2 nM solution of human, rhesus, cynomolgus, or mouse CCL20-SEAP in HBS-EP buffer was injected over flow cell 2, 3, or 4. For antibody binding, 240 μl of 0-80 nM dilutions of HC2/LC3, HC2/LK3, or 2F5-5 MAb in HBS-EP buffer (or buffer alone) was injected over all four flow cells at a flow rate of 50 μl/min. Dissociation followed for 45 min. Flow cell 1 (anti-SEAP alone) was used as a reference for all flow cells. Regeneration of the flow cells was performed with 10 mM glycine at pH 2.25. Due to regeneration effects on the capturing capacity of the chips, antibody injections were performed sequentially from low to high concentration. Data fitting was performed using a 1:1 Langmuir model.
(§2) In contrast, chimeric, HC2/LC3, and HC2/LK3 antibodies effectively bound to human, rhesus, and cynomolgus CCL20 (Table 17).

The target of assay [2] is T3, cynomolgus CCL20-secreted alkaline phosphatase (SEAP) fusion (cynomolgus monkey).
T3 construct: also called cCCL20; cynomolgus CCL20-SEAP; not shown: the SEAP reporter (cDNA from Clontech pSEAP-Enhancer) and its junction to CCL20
T3 chain: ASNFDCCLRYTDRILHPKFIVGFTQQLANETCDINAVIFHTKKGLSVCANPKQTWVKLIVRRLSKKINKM
The description is as above. Here is the method: as §1, §2

Assay [3] addresses T4, rhesus CCL20-secreted alkaline phosphatase (SEAP) fusion (rhesus monkey).
T4 construct: also called rCCL20; rhesus CCL20-SEAP; not shown: the SEAP reporter (cDNA from Clontech pSEAP-Enhancer) and its junction to CCL20
T4 chain: T3 chain with I38V
Described as above. As for the experimental part:
as §1, §2

A further assay concerns the target T5, recombinant human CCL5 (human, UniProt P13501 24-91).
T5 construct: also called Rantes
T5 sequence (looked up): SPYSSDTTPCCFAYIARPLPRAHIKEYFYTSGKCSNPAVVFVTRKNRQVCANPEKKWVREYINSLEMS
Kind of assay: ELISA, plate-bound chemokine (1 ug/ml), antibody 10 ug/ml, OD450. As for the experimental part: (§3) The wells of a 96-well plate were coated with 1 μg/ml of the recombinant human chemokines in PBS (−). After overnight incubation at 4° C., the wells were blocked with 1× Block-Ace (Dainippon Sumitomo Pharma, UK-B80) for 1 hour at room temperature. After washing twice with 0.02% Tween 20/PBS (−), we added 50 μl of 10 μg/ml purified 36F7C10, chimeric 36F710, HC2/LK3, or HC2/LC3 in 0.02% Tween 20/PBS (−) to each well. The wells were incubated for 1 hour at room temperature and washed three times as described in Example 3. […] After washing five times, a TMBZ (3,3′,5,5′-tetramethylbenzidine) solution (1%, in N,N-Dimethylformamide) was added to the wells and incubated for 15-30 minutes. The reaction was stopped by adding an equal volume of a 2 M H₂SO₄ stopping solution, and the optical density was read at 450 nm by ARVO (PerkinElmer).
In general terms: In an ELISA, binding on a coated surface is turned into a signal by an enzyme label.

The target of another assay is T6, recombinant human CXCL8 (human, UniProt P10145 28-99).
T6 construct: also called IL-8
T6 sequence (looked up): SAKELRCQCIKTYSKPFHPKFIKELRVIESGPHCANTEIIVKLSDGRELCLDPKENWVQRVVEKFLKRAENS
The assay is described as above. Here is the method: as §3

In the next assay the target is T7, recombinant human XCL1 (human, UniProt P47992 23-114, limits assumed).
T7 construct: also called Ltn
T7 sequence (looked up): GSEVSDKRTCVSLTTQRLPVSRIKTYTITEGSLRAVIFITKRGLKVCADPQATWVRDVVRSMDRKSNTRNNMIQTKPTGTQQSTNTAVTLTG
The assay is described as above. Here is the method:
as §3

The target in assay [4] is T3, cynomolgus CCL20-secreted alkaline …. Kind of assay: SPR (Biacore), bivalent format, KD ratio against human CCL20 (Table 17). Here is the method:
as §1, §2

For assay [5], the target named is T4, rhesus CCL20-secreted alkaline …. The assay is described as above. Here is the method: as §1, §2

Residue numbers refer to the chain shown, from its start.

T2 sequence (P78556 27-96): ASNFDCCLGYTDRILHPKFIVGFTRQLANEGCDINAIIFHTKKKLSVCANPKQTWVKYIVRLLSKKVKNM

B1: humanized anti-human CCL20 antibody 36LK3/36HC2 (antibody, human IgG1, kappa, V domains shown)
VH: QVQLVQSGAEVKKPGASVKVSCKASGYTFTNYWMHWVRQAPGQGLEWMGVIDPSDSYTTYAQKFQGRVTMTVDTSTSTVYMELSSLRSEDTAVYYCARGNYGVDYAMDYWGQGTLVTVSS
VL: DIQMTQSPSSLSASVGDRVTITCGASENIYGALNWYQRKPGKAPKLLIYGATNLADGVPSRFSGSGSGRDYTLTISSLQPEDFATYYCQNVLITPYTFGQGTKLEIKR
notes: expressed in HEK293 cells; also called HC2/LK3; HC2LK3
In general, koff refers to the rate constant with which the complex falls apart. Read a low koff as slow dissociation. A word on the kon: it is the rate constant with which the complex forms. Read a low kon as slow association. On to B1, for which the ReqCk/ReqAb ratio with recombinant human CCL16 was found to be 0.006. Further, the Kd in assay [1] was 0.0118 nM; in assay [2] it was 0.0283 nM; in assay [3], 0.0312 nM. Moreover, the koff in assay [1] stood at 3.39e-05 s⁻¹; in assay [2] it was 0.000149 s⁻¹; in assay [3] it was 8.21e-05 s⁻¹. In addition, the on-rate constant (kon) in assay [1] turned out to be 2.88e+06 M⁻¹ s⁻¹; in assay [2], 5.28e+06 M⁻¹ s⁻¹; in assay [3], 2.63e+06 M⁻¹ s⁻¹. Besides, the binding result with recombinant human CCL5, in the assay with recombinant human CXCL8 and with recombinant human XCL1 was “no binding (tested: 10 ug/ml)” throughout. In addition, the “fold higher KD than for human CCL20” value in [4] and in assay [5] was roughly 3 fold in each case.

B2: humanized anti-human CCL20 antibody 36LC3/36HC2 (antibody, human IgG1, kappa, V domains shown)
VH: B1 VH
VL: B1 VL with G24R, R38Q, D70Q, T72S, Q100G
notes: expressed in HEK293 cells; also called HC2/LC3; HC2LC3
For the molecule B2, the ReqCk/ReqAb ratio in the assay with recombinant human CCL16 is 0.005. In addition, the Kd in [1] was determined as 0.00471 nM; in [2] it was 0.0155 nM; in assay [3], 0.0182 nM. The koff in [1] was determined as 2.68e-05 s⁻¹; in assay [2], 0.000134 s⁻¹; in assay [3], 7.51e-05 s⁻¹. Moreover, the kon came to 5.69e+06 M⁻¹ s⁻¹ in assay [1], 8.64e+06 M⁻¹ s⁻¹ in assay [2] and 4.13e+06 M⁻¹ s⁻¹ in assay [3]. In addition, the binding result with recombinant human CCL5, in the assay with recombinant human CXCL8 and in the assay with recombinant human XCL1 was “no binding (tested: 10 ug/ml)” throughout. The “fold higher KD than for human CCL20” value in assay [4] and in [5] was roughly 3 fold in each case.

B3: mouse anti-human CCL20 monoclonal antibody 36F7C10 (antibody, V domains shown)
VH: QVQLQQPGAELVKPGASVKMSCKASGYTFTNYWMHWVKQRPGQGLEWIGVIDPSDSYTTYNQKFKGKATLTVDTSSSTAYMQLSSLTSEDSAVYYCTRGNYGVDYAMDYWGQGTSVTVSS
VL: DIQMTQSPASLSASVGETVTITCGASENIYGALNWYQRKQGKSPQLLIYGATNLADGMSSRFSGSGSGRQYSLKISSLHPDDVATYYCQNVLITPYTFGGGTKLEIK
notes: Mouse hybridoma antibody; also called MouseMAb; parental mouse clone 36F7C10
Turning to B3, the binding result with recombinant human CCL5, with recombinant human CXCL8 and with recombinant human XCL1 was “no binding (tested: 10 ug/ml)” in each case.

B4: chimeric 36F7C10 antibody (36F7C10-hFc) (antibody, V domains shown)
VH: B3 VH
VL: B3 VL
notes: also called chimeric 36F710; Chimeric MAb
Take B4: the ReqCk/ReqAb ratio with recombinant human CCL16 was 0.006. Besides, the Kd in assay [1] was determined as 0.00716 nM; in [2], 0.0132 nM; in assay [3], 0.00605 nM. The koff in assay [1] amounted to 2.08e-05 s⁻¹; in assay [2], 5.04e-05 s⁻¹; in assay [3], 1.78e-05 s⁻¹. The figures for the kon in assay [1], in [2] and in assay [3] were 2.9e+06 M⁻¹ s⁻¹, 3.83e+06 M⁻¹ s⁻¹ and 2.94e+06 M⁻¹ s⁻¹, respectively. The binding result with recombinant human CCL5, with recombinant human CXCL8 and in the assay with recombinant human XCL1 was “no binding (tested: 10 ug/ml)” throughout. The “fold higher KD than for human CCL20” value in [4] and in assay [5] was roughly 3 fold throughout.
